Laboratory results as given in US20200157212A1 (Pfizer, published 2020).
Where a chain is given by its changes, count along the chain named.

T1: Human ROBO2 overexpressed on HEK293 cells (human, UniProt Q9HCK4 22-1378)
T1 construct: also called ROBO2 cells; native ROBO2
T1 sequence: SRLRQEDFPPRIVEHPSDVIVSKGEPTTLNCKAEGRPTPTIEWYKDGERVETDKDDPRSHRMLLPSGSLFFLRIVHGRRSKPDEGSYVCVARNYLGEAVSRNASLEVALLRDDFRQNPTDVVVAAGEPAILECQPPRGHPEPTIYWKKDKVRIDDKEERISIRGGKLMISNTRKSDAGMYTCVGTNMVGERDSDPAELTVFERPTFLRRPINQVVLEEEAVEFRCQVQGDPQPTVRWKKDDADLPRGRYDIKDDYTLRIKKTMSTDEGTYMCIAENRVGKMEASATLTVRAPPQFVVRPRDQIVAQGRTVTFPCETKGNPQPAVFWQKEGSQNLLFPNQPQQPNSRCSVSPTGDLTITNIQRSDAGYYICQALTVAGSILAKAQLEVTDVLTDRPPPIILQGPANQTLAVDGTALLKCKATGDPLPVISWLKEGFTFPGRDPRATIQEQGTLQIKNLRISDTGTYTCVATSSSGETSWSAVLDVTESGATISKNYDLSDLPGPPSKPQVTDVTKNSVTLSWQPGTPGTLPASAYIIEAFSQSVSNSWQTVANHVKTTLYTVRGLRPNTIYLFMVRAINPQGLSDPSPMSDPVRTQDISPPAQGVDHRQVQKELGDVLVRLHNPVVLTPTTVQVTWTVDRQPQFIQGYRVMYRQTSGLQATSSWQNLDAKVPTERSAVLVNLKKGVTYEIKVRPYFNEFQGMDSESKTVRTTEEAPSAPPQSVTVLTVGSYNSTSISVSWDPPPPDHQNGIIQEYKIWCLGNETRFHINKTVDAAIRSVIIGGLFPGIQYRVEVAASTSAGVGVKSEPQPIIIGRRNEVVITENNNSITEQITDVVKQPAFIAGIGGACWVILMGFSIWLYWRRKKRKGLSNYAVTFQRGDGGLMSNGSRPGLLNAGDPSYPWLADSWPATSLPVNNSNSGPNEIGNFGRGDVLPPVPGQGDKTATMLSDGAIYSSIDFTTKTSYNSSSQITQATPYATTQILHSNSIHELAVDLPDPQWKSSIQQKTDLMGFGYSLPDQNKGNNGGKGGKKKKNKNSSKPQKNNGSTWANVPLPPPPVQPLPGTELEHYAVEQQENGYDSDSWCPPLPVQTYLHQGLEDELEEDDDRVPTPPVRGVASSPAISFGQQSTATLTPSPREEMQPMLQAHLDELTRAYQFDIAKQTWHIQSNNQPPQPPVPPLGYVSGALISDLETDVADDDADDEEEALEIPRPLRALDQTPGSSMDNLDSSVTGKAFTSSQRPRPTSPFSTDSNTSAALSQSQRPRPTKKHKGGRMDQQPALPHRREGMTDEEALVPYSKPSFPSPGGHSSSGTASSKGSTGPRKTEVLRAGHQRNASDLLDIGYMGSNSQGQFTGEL

B1: 93H2 (antibody, human IgG1, kappa, V domains shown)
VH: EVQLVQSGAEVKKPGASVKVSCKASGYTFTGYYMHWVRQAPGQGLEWMGWINPNSGATNFPQKFQGRVTMTRDTSITTAYMDLSRLRSDDTAVYYCARESGDDAFDIWGQGTMVTVSS
VL: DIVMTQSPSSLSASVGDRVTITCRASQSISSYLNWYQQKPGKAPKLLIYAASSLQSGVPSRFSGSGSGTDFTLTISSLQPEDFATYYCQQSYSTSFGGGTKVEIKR
notes: also called parental 93H2; 93H2 mAb
B2: Abcs25 (antibody, human IgG1, kappa, V domains shown)
VH: B1 VH with N54K, S55D, A57D, N59E
VL: DIVMTQSPSSLSASVGDRVTITCRASQSISSYLNWYQQKPGKAPKLLIYAASSLQSGVPSRFSGSGSGTDFTLTISSLQPEDFATYYCQQSVGLSFGGGTKVEIKR
notes: chain-shuffled IgG
B3: Abcs35 (antibody, human IgG1, kappa)
heavy: EVQLVQSGAEVKKPGASVKVSCKASGYTFTGYYMHWVRQAPGQGLEWMGWINPKNGDTEFPQKFQGRVTMTRDTSITTAYMDLSRLRSDDTAVYYCARESGDDAFDIWGQGTMVTVSSASTKGPSVFPLAPSSKSTSGGTAALGCLVKDYFPEPVTVSWNSGALTSGVHTFPAVLQSSGLYSLSSVVTVPSSSLGTQTYICNVNHKPSNTKVDKKVEPKSCDKTHTCPPCPAPEAAGAPSVFLFPPKPKDTLMISRTPEVTCVVVDVSHEDPEVKFNWYVDGVEVHNAKTKPREEQYNSTYRVVSVLTVLHQDWLNGKEYKCKVSNKALPAPIEKTISKAKGQPREPQVYTLPPSREEMTKNQVSLTCLVKGFYPSDIAVEWESNGQPENNYKTTPPVLDSDGSFFLYSKLTVDKSRWQQGNVFSCSVMHEALHNHYTQKSLSLSPGK
light: DIVMTQSPSSLSASVGDRVTITCRASQSISSYLNWYQQKPGKAPKLLIYAASSLQSGVPSRFSGSGSGTDFTLTISSLQPEDFATYYCQQSVGLFFGGGTKVEIKRTVAAPSVFIFPPSDEQLKSGTASVVCLLNNFYPREAKVQWKVDNALQSGNSQESVTEQDSKDSTYSLSSTLTLSKADYEKHKVYACEVTHQGLSSPVTKSFNRGEC
notes: fully human IgG1; VH of Ab96 with VL of Ab123

Target: T1, Human ROBO2 overexpressed on HEK293 …
Assay: flow cytometry, HEK293 cells, average of n = 5
Protocol: Binding of the antibodies was detected using a secondary fluorochrome conjugated anti-human IgG F(ab′)₂ antibody and samples were analyzed on a Fortessa cytometer (BD Biosciences). The fold ROBO2 selectivity was calculated as the geometric mean fluorescence intensity (Geo MFI) with ROBO2 cells/Geo MFI with ROBO1 cells. A fold change higher than 3 was considered to be ROBO2 specific (Table 2, Fold Selectivity). Some affinity matured clones had increased ROBO1 reactivity, for example Abcs 55, CTI-R2-10 and CTIR2-13.
Based upon several criteria, Abcs25 and Abcs35 were selected for further characterization. Using flow cytometry, improvement in the binding EC₅₀ to human ROBO2 relative to the parental 93H2 was evaluated. Starting at 6.7 nM, 11-point, 3-fold dilution series were made for each antibody and used to stain HEK293 overexpressing human ROBO2 as described above for the ROBO2 fold selectivity (Example 2). […] In addition to measuring improved binding to human ROBO2, it was important to ensure that high affinity binding to both cynomolgus monkey ROBO2 and rat ROBO2 was maintained. Using HEK293 cells overexpressing either cynomolgus monkey ROBO2 or rat ROBO2, the relative dose-dependent binding of 93H2, Abcs25 and Abcs35 was evaluated as described above. High affinity binding to both cynomolgus monkey and rat ROBO2 was maintained in Abcs25 and Abcs35 (Table 4). […] Briefly, Abcs35 was immobilized to 300 resonance units (RU) on a CM5 chip. Association of ROBO2 Ig1-Ig2-His (ROBO2) was measured over 5 minutes and dissociation was followed for a period of 10 minutes.

| Binder | EC50 [nM] |
| --- | --- |
| B1 | 0.133 |
| B2 | 0.068 |
| B3 | 0.082 |
